Results published in FireProtDB.
Several values for one entry are separate records, joined by “and”; a condition that tells them apart may be missing. Equal entries are not always repeated.

Settings: whole UniProt chain shown; for denaturant m value / denaturant midpoint (higher = more stable) / unfolding free energy: 25 °C
[1] = Phaseolus vulgaris, pH 7, GdnHCl, CD, Potassium phosphate 50 mM, Na2SO4 0.5 M, reversible: yes
[2] = Phaseolus vulgaris, pH 7, GdnHCl, Fluorescence, Potassium phosphate 50 mM, Na2SO4 0.5 M, reversible: yes
[3] = Notophthalmus viridescens, pH 7.2, GdnHCl, CD, Phosphate 100 mM
[4] = Niallia circulans, pH 6, Thermal, DSC, HEPES 100 mM, reversible: No
[5] = Niallia circulans, pH 8.5, Thermal, DSC, HEPES 100 mM, reversible: No
[6] = Niallia circulans, pH 10, Thermal, DSC, CHESS 100 mM, reversible: No
[7] = Pseudomonas aeruginosa (strain ATCC 15692 / DSM 22644 / CIP 104116 / JCM 14847 / LMG 12228 / 1C / PRS 101 / PAO1), pH 7, Thermal, CD, KH2PO4-NaOH 10 mM, reversible: yes
[8] = Oryctolagus cuniculus, pH 7.4, Thermal, DSC, sodium phosphate 50 mM, reversible: yes
[9] = Mus musculus, pH 2, Thermal, DSC, Potassium phosphate 40 mM, reversible: yes
[10] = Mus musculus, pH 2.7, Thermal, DSC, Potassium phosphate 40 mM, reversible: yes
[11] = Mus musculus, pH 7, Thermal, DSC, Potassium phosphate 40 mM, reversible: yes

B1: Plastocyanin wild type, P00287 (protein)
chain: LEVLLGSGDGSLVFVPSEFSVPSGEKIVFKNNAGFPHNVVFDEDEIPAGVDAVKISMPEEELLNAPGETYVVTLDTKGTYSFYCSPHQGAGMVGKVTVN
For B1, the denaturant m value [1] was 2.7 kcal/mol/M, the “denaturant midpoint (higher = more stable)” value (“denaturant midpoint” for short) [1] was 2.1 M and the unfolding free energy [1] was 5.8 kcal/mol. The denaturant m value [2] was 2.5 kcal/mol/M, the “denaturant midpoint” value [2] was 2.1 M and the unfolding free energy [2] was 5.3 kcal/mol.

B2: Harpin HrpZ wild type, P35674 (protein)
chain: MQSLSLNSSSLQTPAMALVLVRPEAETTGSTSSKALQEVVVKLAEELMRNGQLDDSSPLGKLLAKSMAADGKAGGGIEDVIAALDKLIHEKLGDNFGASADSASGTGQQDLMTQVLNGLAKSMLDDLLTKQDGGTSFSEDDMPMLNKIAQFMDDNPAQFPKPDSGSWVNELKEDNFLDGDETAAFRSALDIIGQQLGNQQSDAGSLAGTGGGLGTPSSFSNNSSVMGDPLIDANTGPGDSGNTRGEAGQLIGELIDRGLQSVLAGGGLGTPVNTPQTGTSANGGQSAQDLDQLLGGLLLKGLEATLKDAGQTGTDVQSSAAQIATLLVSTLLQGTRNQAAA
With B2 the “unfolding enthalpy (calorimetric)” value (Pseudomonas syringae pv. syringae, pH 7.5, Thermal, CD, Sodium phosphate 5mM) was 33.8 kcal/mol and 58.3 kcal/mol.

B3: Fibroblast growth factor 1 wild type, Q7SIF8 (protein)
chain: QKPKLLYCSNGGYFLRIFPDGKVDGTRDRSDPYIQLQFYAESVGEVYIKSLETGQYLAMDSDGQLYASQSPSEECLFLERLEENNYNTYKSKVHADKDWFVGIKKNGKTKPGSRTHFGQKAILFLPLPVSSD
In the case of B3, the denaturant m value [3] is reported as 3.8 kcal/mol/M, the “denaturant midpoint” value [3] is reported as 1.6 M and the unfolding free energy [3] is reported as 6.1 kcal/mol.

B4: Phosphoserine aminotransferase wild type, Q59196 (protein)
chain: MSKRAYNFNAGPAALPLEVLERAQAEFVDYQHTGMSIMEMSHRGAVYEAVHNEAQARLLALLGNPTGYKVLFIQGGASTQFAMIPMNFLKEGQTANYVMTGSWASKALKEAKLIGDTHVAASSEASNYMTLPKLQEIQLQDNAAYLHLTSNETIEGAQFKAFPDTGSVPLIGDMSSDILSRPFDLNQFGLVYAGAQKNLGPSGVTVVIVREDLVAESPKHLPTMLRYDTYVKNNSLYNTPPSFGIYMVNEVLKWIEERGGLEGVQQANRKKASLIYDAIDQSGGFYRGCVDVDSRSDMNITFRLASEELEKEFVKASEQEGFVGLKGHRSVGGLRASIYNAVPYESCEALVQFMEHFKRSRG
For B4, the Tm [4] was 71 °C, the “unfolding enthalpy (calorimetric)” value [4] was 288 kcal/mol and the Tm [5] was 58.4 °C. The “unfolding enthalpy (calorimetric)” value [5] was 121 kcal/mol, the Tm [6] was 58 °C and the “unfolding enthalpy (calorimetric)” value [6] was 124 kcal/mol.

B5: Cytochrome c-551 wild type, P00099 (protein)
chain: MKPYALLSLLATGTLLAQGAWAEDPEVLFKNKGCVACHAIDTKMVGPAYKDVAAKFAGQAGAEAELAQRIKNGSQGVWGPIPMPPNAVSDDEAQTLAKWVLSQK
For B5, the Tm [7] was 56 °C and the “unfolding enthalpy (van 't Hoff)” value [7] was 39.5 kcal/mol.

B6: Cytochrome b5 wild type, P00169 (protein)
chain: MAAQSDKDVKYYTLEEIKKHNHSKSTWLILHHKVYDLTKFLEEHPGGEEVLREQAGGDATENFEDVGHSTDARELSKTFIIGELHPDDRSKLSKPMETLITTVDSNSSWWTNWVIPAISALIVALMYRLYMADD
In the case of B6, the unfolding free energy [8] is reported as 1.7 kcal/mol, the Tm [8] is reported as 48.5 °C and the “heat capacity change of unfolding” value [8] is reported as 1 kcal/mol/K. The “unfolding enthalpy (calorimetric)” value [8] was 35.7 kcal/mol.

B7: Ig gamma-1 chain C region secreted form wild type, P01868 (protein)
chain: AKTTPPSVYPLAPGSAAQTNSMVTLGCLVKGYFPEPVTVTWNSGSLSSGVHTFPAVLQSDLYTLSSSVTVPSSPRPSETVTCNVAHPASSTKVDKKIVPRDCGCKPCICTVPEVSSVFIFPPKPKDVLTITLTPKVTCVVVDISKDDPEVQFSWFVDDVEVHTAQTQPREEQFNSTFRSVSELPIMHQDWLNGKEFKCRVNSAAFPAPIEKTISKTKGRPKAPQVYTIPPPKEQMAKDKVSLTCMITDFFPEDITVEWQWNGQPAENYKNTQPIMNTNGSYFVYSKLNVQKSNWEAGNTFTCSVLHEGLHNHHTEKSLSHSPGK
With B7 the Tm [9] was 69.3 °C, the “unfolding enthalpy (calorimetric)” value [9] was 84 kcal/mol and the Tm [10] was 69.5 °C. For the same protein, the “unfolding enthalpy (calorimetric)” value [10] was 86.6 kcal/mol, the Tm [11] was 70.2 °C and the “unfolding enthalpy (calorimetric)” value [11] was 174 kcal/mol.

B8: wild type, P95467 (protein)
chain: MKKALIASTALLLTAGVAAADVKISGYGRTGVIYYENDSDVNESRVQSRLRMNIDASSSTDSGVDFGARFRLQWDQGEEGEAQTNAGKLWVSAQGFTVEVGNVDTAFASNGLIYETGLGSYDRSVGFSAVTGAFFAYDSNGYGIDEVDRVGIRALYTLGDLTLQASYVDPDQSGTVIGVEEEFGFSVDYTWNERLELSAAAAFNGAGIDGNDIYFLGARYAVMDNARIGLNFVDAGDEEDGYDGKTIALYGDYTLADGRTNLEAYIANNDRDSNETDNAFGIGVNYDLGGARLGASLQRDYAENVTADFGVRFEF
Protein B8 has a Tm (Paracoccus denitrificans, pH 1.5, Thermal, CD, Unknown, reversible: No) of 78.5 °C, a Tm (Paracoccus denitrificans, pH 4, Thermal, CD, Unknown, reversible: No) of 82.6 °C and a Tm (Paracoccus denitrificans, pH 8, Thermal, Absorbance, Tris-HCl 50 mM, NaCl 100 mM, reversible: no) of 86.2 °C. It also gave a Tm (Paracoccus denitrificans, pH 8, Thermal, CD, Unknown, reversible: No) of 86.2 °C and a Tm (Paracoccus denitrificans, pH 10, Thermal, CD, Unknown, reversible: No) of 86.2 °C.
